Measured values from the DeepSol protein solubility set.

Experiment: soluble on expression in E. coli; label from the status in PepcDB or PDB records

Sequence	soluble on expression in E. coli
MNDALLRALSTVNDPELHRDLVSLGMIERAELSGDVAQVKVNLTTPACPLKGQIELDVRSALLQVPGVRDVQIEFGAMVRAATQPALPGVKHVVLVGSGKGGVGKSSVAVNLAASLARDGARVGLLDADVYGPSVAHMLGQGQARVTANEDRKMRPIEAHGVRFISMANLSPAGQALVWRGPMLHSAIQQFLKDSAWGELDYLIVDLPPGTGDVQLSLTQTVQVTGAVIVTTPQDVALIDAARAIDMFRKASVPVLGVVENMSYFVAPDTGLTYDIFGRGGSRKLGEQYPLLGEIPLDVEVRKDADAGAPAILAHPESVAAQALRAVARTLAGQISVRTLSELPEQLPVLLEHHHHHH	soluble
MSLDETPTIHILWINAGLSCDGDSVALTAAMQPSIEEIVLGVLPGLPKIAVHWPLIDFECGPVGGSDTFIEWFFKGERGEIDPFVLVVEGSIPNESIKPEGYWCGFGDNPETGQPITTSEWIDRLAPKALAVVAIGTCATYGGIHAMAGNPTGAMGVPDYLGWDWKSQAGIPIVCVPGCPIQPDNFSETLTYLLYQAAGAAPMIPLDDKLRPTWLFGATEGHHHHHH	soluble
DPHAYEHNLKSWVGNTPVFATVNQLDLDEEQSTLLKGEVGVDWYWMGYEAGKYLAERHPKGSGKTNIALLLGPRTRGGTKPVTTGFYEAIKNSDIHIVDSFWADNDKELQRNLVQRVIDMGNIDYIVGSAVAIEAAISELRSADKTHDIGLVSVYLSHGVYRGLLRNKVLFAPTDKMVQQGRLSVMQAAHYLRHQPYEKQASPIIKPLTPKTLHDDTIEESLSPSEYRPTFSIKAVD	not soluble
MGDQLDAVEVQAISPDGEITVKLGTGDAVDVQFKSDEYFKSVPHETLSHQLGRALTLLAVGRIRKRHQILEAEGFEVYGEDDAHWDKRVRVFREKRAQVKAAGRSPKRHIAIATVGLRDFKVRFERDVTRRLSRSEFSGEFGGAVAAVISEYSAQMTQLKTAMFT	not soluble
GSEPYSLTAQQSSLIREDKSNAKLWNEVLASLKDRPASGSPFQLFLSKVEETFQCICCQELVFRPITTVCQHNVCKDCLDRSFRAQVFSCPACRYDLGRSYAMQVNQPLQTVLNQLFPGYGNGR	soluble
MGSDKIHHHHHHMKVLEKDYQINSVRKAIDAGANSIIALPTGGGKSICILKLCQAMPDKKVVISLRNAALVPQLLHTLTINGLSVSVVKSGYKYIAGGDVTLVMEQSFGRRKHLNIQCDVLLRDEYHVGCMGGVYIAMREELSPDLIIGLTATPIDRLGVYIDKSMQLIEETTTKMLIEAGELAKPVYKVPSLSQEIDYSAVKMYRGDFSVSGLDNILLEHCSLVAQQTVDDALSHGRKVMLFANSINHVESLSEAFDLLGIEHERVHSQRSSDENDESIRRYKSNEVRLIINMSMLTIGFDDPTTDCVVLARPTKILRLYLQIIGRCLRASKGKTSALILDLAQCISTHGFAEDLRDFTRKTSKSAAIMAERLSVTNIGQFVDGEFTYNESIERKVVKKRAPVIRRKPRDGLVASKELVDRAASNRAAALLRLNPRMEKLVSTIELVNIVYEQQDESSKMLDEVAMVKLVALIGFAYSDALVDSCTALVEGLHAQNQSIRGLPLRVSNLITSIAMQDLGVKEVVTKS	not soluble
MTRQSQDGDATSTPAERAAAARAAAAEAARIAAEAAAAAEEAEKEARDAEAAENRAPAGVAASSGAAADIAAGYSSEGAALELGTVVLDGVVDSAARVRIPLATVNRHGLVAGATGTGKTKTLQGIAEQLSAAGVPVVMADMKGDLSGLSQPGEAGDKITTRASETGDGEWRPAASPVEFLSLGTEGLGIPVRATITAFGPILLAKVLGLNETQESTLGLIFHWADVQGLALLDLLDLRSVIAHLTSDEGKADLKGIGGVSPATAGVILRALVNLEADGGDTFFGEPELETEDLLRVIDGKGVITLFELGAQAARPALFTTFLMWVLADLFQTLPEEGDLDKPKLVFIFDEAHLLFADASKAFLQQVEQTVKLIRSKGVGVFFCTQLPTDVPNGVLSQLGARIQHALRAFTPDDQKALTKTVRTYPTTENYDLEKALTSLGIGEAIVTVLSERGAPTPVAWTRIRPPRSLMDTIGTDAITAAASSSPLSAKYGQTVDRESAYEKLTAKVAGAPAAEPGLDLPPLPDLPTPPPAQPEGPNMAEQILGNSAVKSFLRSAASAAGREISRSIFGTGKRRRR	not soluble
MAHHHHHHMSEALTPPDSWSHGHPDVNAELKLLRGAVAQALVEARQSSDFCRRIQHDISEYFQSEQRRRVQSGDSIESEQFIPNVMASVDGHLAEFESFIIGRVREELENKVDKDLSEKFDSYRMQLEHLRQQEEEQEARLRFILEDAVKMNCELRNEMKWCASELWDRVSAMEEKLKFMATRTHTNAGGKDVMDLGLPNALREVIGILTLLSEGLEVERELHNEERQRWMSLMSRAVEKIRLLGERDEALEANLQELRQVAAAIQHRFGEFSGFVVDFWHRLEMMGSPSVAVEDAACEGSLSMYSKAGICAKKQMDDFMKELHEVGVALRALQVEHVGFKDILDSNTVNITEIRRNVEALAVGAKLIAEERERIDREESSLDLQYLIRSTPRDGNECEGSTGTPRRGNLSLRKQWQVAHLPTLELLHGKICNIPISHAFRLWAAWASGRRQLRRDKTMVHEPQEDPDTNSLGSRK	not soluble
MAHHHHHHMPPKRYPNRLLVLCASINDVTAWPFWKFLQMKKIRGVTDMALLAFNSDGGSFEARIDGDKYQLKNYAKVRGYQHDMFESFVHRWHDPGRSYFVYGGHGMGDYVELEQNRVIAAGARARRRLRHACLRSSAL	not soluble
MSLAEPVLGDDGLYQLDWYLQSFLDLKEDLEGATAKGKRFAILWGLKGCPYCKKLHDVHMRDPAIESYIRDNFEIVHLNHIGAREVTDFDGSKLSEKAFAQAYGIRFTPSLQFFPESADGLAAKKPQDREVARMPGLLEPPEFLAMFKYVREKGYQSMPFTDWLKREGHHHHHH	soluble
MAHHHHHHMSYYDKSDKIGYDDTDKELNEELEEMLARTPPHIQRHLQHRIHDGILQRMKEDTARRCWEFIKKYETCVNSVKPYDLTDCRPHRDALNDCAHEVNREQIYQKYRMMYLRGELLRLHESRLGQKMETMKVRAPDSIRGWKPDYAPKYAEMMSDIGLNLGPEAADERKLS	not soluble
SNTLRDFFTNETYTTIENEQHVLTEYRLPGSIERRYYSEEATAPTTVRSVQHVLLPENEEASSDKDLSILSSSFIHKVYKLADKQEAKKKRYSADVNGEKVFFVIKKGLSVNGQSAMMLSYALDSYRDDLAYTLFKQ	not soluble
MSLSIPLILASQSRPRRDVLFSAGICPTIRVSHVDEPAALEREAAALGVTVNDLSVEQRVMILATAKAEAVHQAYRNIADTAAHARGERVVGFPLRAADDRDASSAGTAARTDSAQSADETKTRDFSGIAIPTVAEPIADFVDGRPSLTRSKAGPLILGCDSMFLLDGECYGKPHSEEVARERLRAMRGATGELWTGHCLIDFASGRMVRGASKATLHFCEYSDLDIERYIATGEPLEVAGSFTLEGFGGAFIDSIEGDPHGIIGLSLPLARRLAAQLGVEWTDLWNVTRSDLAPDAEYDAKTGAAKPLPPKENVHQPGDGWVDCACGRKHWGTNGASGVLLARRSETTGEVTHVVMQHRAVWSAEGGTWGIPGGATADGESPIEGALRESYEEANITPEDIDVVGSYCEDHGPWSYTTVFAFEKPGHRIEPKANDDESMEIEWVPVDDVPNRKLLTAMRTDWPNFAARLRALAAVREGHHHHHH	soluble
MGSDKIHHHHHHMELNHLVTGKIALNQYVHRLEQKDVSFYVHYWGAMTNHYNTLLHKHSFYEICYVVRGEGYYLEGDRTYPLREQTIFLSKPEHLHQIKSETGLFLFYVAFELSEDQSSAEWIKVMEEVKQSPFITMQLKDGEPPGLLWKTLMLQAAQPVNAFDKEILSHLSHALILSLIQTFLPYAQRPKQKQPIHTSSALLTEVKLHIKDNLSQPLKLTDVASHFHISGRHLSRLFAAELGVSYSEFVQNEKINKAAELLKSTNLSIKEIAEEIGFSVHYFTRVFSAKIGSSPGLFRSLYKDSKMTAFQINKPFQKIEQAKPHE	not soluble
GQAQTQVKIISQKSDEINEAITRKIDRGSTLLHTETGYLHSRQNMILTVISNRELSKLNQLVMEIDPTAFMIIGKVNEVHGNGFTLPKKHAVKTEK	not soluble
